Experimental data taken from article PMC8225996 (Frontiers in Cardiovascular Medicine, 2021).

Molecular target: T1, Angiotensin converting enzyme 2 (mouse (endogenous in primary brain …, UniProt Q8R0I0 18-805))
T1 construct: Angiotensin converting enzyme 2 (ACE2), type I membrane glycoprotein; endogenous in mouse brain microvascular endothelial cells; also called ACE2; ACE2 receptor; source: endogenous, mouse primary brain microvascular endothelial cells (C57BL/6 control; db/db diabetic), in lysate
T1 sequence (Q8R0I0 18-805): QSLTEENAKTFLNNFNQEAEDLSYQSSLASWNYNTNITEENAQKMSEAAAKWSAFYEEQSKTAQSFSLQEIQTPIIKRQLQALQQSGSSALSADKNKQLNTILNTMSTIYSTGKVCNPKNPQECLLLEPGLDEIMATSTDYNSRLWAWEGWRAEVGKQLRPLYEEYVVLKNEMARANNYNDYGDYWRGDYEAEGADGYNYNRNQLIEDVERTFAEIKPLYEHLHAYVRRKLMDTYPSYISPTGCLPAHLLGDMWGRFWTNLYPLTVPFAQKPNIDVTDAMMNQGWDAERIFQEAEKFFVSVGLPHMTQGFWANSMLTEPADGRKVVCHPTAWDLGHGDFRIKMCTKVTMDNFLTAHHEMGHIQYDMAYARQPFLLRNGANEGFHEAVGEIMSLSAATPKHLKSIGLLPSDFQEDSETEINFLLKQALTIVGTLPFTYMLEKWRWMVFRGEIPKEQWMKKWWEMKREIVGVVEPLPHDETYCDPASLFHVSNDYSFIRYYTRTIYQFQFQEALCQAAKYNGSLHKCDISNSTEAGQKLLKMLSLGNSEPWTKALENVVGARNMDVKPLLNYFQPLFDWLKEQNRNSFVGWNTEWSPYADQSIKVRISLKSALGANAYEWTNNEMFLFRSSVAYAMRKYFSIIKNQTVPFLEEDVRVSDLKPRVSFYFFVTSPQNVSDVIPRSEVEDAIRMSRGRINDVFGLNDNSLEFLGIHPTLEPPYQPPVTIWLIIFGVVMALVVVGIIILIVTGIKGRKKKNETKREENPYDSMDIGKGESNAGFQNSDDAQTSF
Assay: co-IP; ACE2 antibody (2 ug) with 150 ug lysate of control endothelial cells treated with Spike; Catch and Release spin columns, 18 h at 4 C; blots probed for Rab5a
Conditions: partners not purified

B1: Rab5a (natural protein, UniProt Q9CQD1 1-215, looked up)
chain: MANRGATRPNGPNTGNKICQFKLVLLGESAVGKSSLVLRFVKGQFHEFQESTIGAAFLTQTVCLDDTTVKFEIWDTAGQERYHSLAPMYYRGAQAAIVVYDITNEESFARAKNWVKELQRQASPNIVIALSGNKADLANKRAVDFQEAQSYADDNSLLFMETSAKTSMNVNEIFMAIAKKLPKNEPQNPGANSARGRGVDLTEPAQPARSQCCSN
notes: Rab5a, Rab GTPase of the endolysosomal trafficking pathway; endogenous in mouse brain microvascular endothelial cells; source: endogenous, mouse primary brain microvascular endothelial cells (C57BL/6 control; db/db diabetic), in lysate
In the case of B1, the “fold change of association with ACE2, Spike-treated against untreated cells” value is reported as 2 fold.
